We go through 1 molecule from patent publication US20250092146A1, “ANTI-CCR8 ANTIBODIES, CONJUGATES, AND USES THEREOF” (Abilita Bio, Inc., priority 2023, published 2025).

Assay [1] addresses T1, hCCR8 (Homo sapiens, UniProt P51685).
T1 construct: expressed in transfected cells
As to the kind of experiment: Flow cytometry binding of purified VHHs to HEK293 cells expressing hCCR8. Particulars: monovalent VHH, FIG. 1. The procedure:
Recombinant cells expressing hCCR8 were resuspended to a final concentration of 1.0×10^6 cells/ml in FACS buffer. Surface expression of hCCR8 on transiently transfected HEK293 cells was confirmed by flow cytometry of HEK293 cells stained with PE anti-hCCR8 (Clone 433H, BD Biosciences, #566897) antibody. Dilutions of purified VHHs were incubated with cells for 60 min. Individual samples were distributed into 96-well v-bottom plates and incubated for one hour at 4° C. Bound VHH were then detected with an anti-VHH specific antibody (Goat anti-alpaca VHH, Jackson ImmunoResearch, #128-605-232). […] Binding was determined in parallel on HEK293 cells stably expressing the closely related receptor hCCR7 (SEQ ID NO: 41), as control for binding specificity.

For assay [2], the target named is T1, hCCR8. Description: Flow cytometry binding of VHH-Fc fusion antibodies to hCCR8 on stably transfected HEK293 cells. Particulars: Table 11. The method, then: VHH-Fc fusion antibodies were evaluated for their ability to bind to hCCR8 on stably transfected HEK293 cells by means of flow cytometry. Cells were incubated with different concentrations of the bivalent VHH-Fc fusions for 60 minutes at 4° C., followed by two washes with FACS buffer, followed by 30 minutes incubation at 4° C. with the Zenon R-Phycoerythrin Anti-human IgG (ThermoFisher Scientific, #Z-25455), and two additional washing steps. Data were plotted and fit using GraphPad Prism software. EC50 and Bmax values individual antibodies were calculated from the resulting dose-response curves. Bivalent VHH-Fc fusions (Seq ID NOs: 31, 33, and 87-103) of 19 different VHH domains (SEQ ID NOs: 27, 28, and 70-86) were tested for cell binding and results are shown in Table 7. […]
VHH-Fc fusion DNA constructs were then generated comprising encoding humanized VHH sequences (SEQ ID NOs: 106-111) fused in frame to the human IgG1 (SEQ ID NO: 34) directly to the short hinge sequence in the pFuse expression vector, and were expressed, purified and analyzed for binding to HEK293 cells expressing human CCR8 as in Example 5. Binding curves for VHH-Fc antibodies comprised of parental VHH-1 and the humanized VHH derivatives VHH-1.2-Fc and VHH-1.3-Fc are shown in FIG. 9A. Binding curves for VHH-Fc antibodies comprised of parental VHH-2 and the humanized VHH derivatives VHH-2-Fc, VHH-2.2-Fc and VHH-2.3-Fc, are shown in FIG. 9B. Cell binding EC50 values, normalized Bmax (relative to respective parental clone) data and humanizing mutations are shown in Table 10 below.
Approaches such as in vitro affinity maturation and rational mutagenesis can be performed to regain binding affinity and/or stability lost through humanization. In vitro affinity maturation generally involves building and amino acid substitution library where amino acid positions are varied across the CDRs and/or framework at a defined set of positions using sets of amino acids chosen to introduce new chemical diversity. The paratope residues within the CDR regions are of course key to antigen binding and care must be taken not to disrupt important structures while attempting to evolve improve antibody behavior. One approach to identify positions that are important to the maintenance of binding properties is to perform paratope mapping using single scanning alanine substitutions across antibody CDR regions. In this approach, residues that are critical to the maintenance of antibody binding to the antigen can be identified and at the same time permissive sites can be identified where it may be possible to make substitutions of other amino acids desirable for subsequent affinity maturation library construction. Site directed mutagenesis was used to make single alanine substitutions at each residue in the CDRs of VHH-1 (SEQ ID NO: 27) and VHH-2 (SEQ ID NO: 28). Changes in VHH-1 CDR amino acids to alanine are indicated in Table 11 (SEQ ID NOs: 112-137) and for VHH-2 CDRs (SEQ ID NO: 138-162) in Table 12. Mutation positions and residue changes to alanine with respect to the in the parental VHH sequences are referenced by their IMGT position. VHH domains containing the indicated modified CDR-1, CDR-2 or CDR-3 domains were used to construct Fc fusions by direct grafting to the short hinge of the human Fc domain (SEQ ID NO: 34). VHH-Fc constructs were expressed, purified and analyzed for binding to HEK293 cells expressing hCCR8 and the results are reported in Table 11 and Table 12. EC50 values are reported for each Fc fusion antibody containing a modified CDR, along with its respective Bmax value normalized to the to the matched wild type VHH-1-Fc or VHH-2-Fc fusion antibody.
For orientation: Flow cytometry measures light scatter and fluorescence of single cells or particles in a stream.

For assay [3], the target named is T2, HuT-78 cells that naturally express human CCR8 (Homo sapiens, UniProt P51685).
T2 construct: HuT-78 cells that naturally express human CCR8 were used as target cells; endogenous in cells; host or cells: HuT-78
As to the kind of experiment: Flow cytometry binding of yeast-display optimized VHH-Fc antibodies to HuT-78 cells. Particulars: Table 13. The text has this:
Top VHH sequences were chosen from the FACS sorted populations based on an analysis of improved binding performance relative to the parental sequences and evidence of sequence enrichment by NGS. Candidate VHH were then cloned as VHH-Fc fusions to the short hinge of the IgG1 Fc domain (SEQ ID NO: 34), expressed in HEK293 cells as described earlier and purified for binding evaluation. Bmax values are shown as normalized to VHH-1 or VHH-2 depending on the clone family. […] Mutations are referenced by position according to the IMGT definition.

T1 sequence (P51685 whole entry): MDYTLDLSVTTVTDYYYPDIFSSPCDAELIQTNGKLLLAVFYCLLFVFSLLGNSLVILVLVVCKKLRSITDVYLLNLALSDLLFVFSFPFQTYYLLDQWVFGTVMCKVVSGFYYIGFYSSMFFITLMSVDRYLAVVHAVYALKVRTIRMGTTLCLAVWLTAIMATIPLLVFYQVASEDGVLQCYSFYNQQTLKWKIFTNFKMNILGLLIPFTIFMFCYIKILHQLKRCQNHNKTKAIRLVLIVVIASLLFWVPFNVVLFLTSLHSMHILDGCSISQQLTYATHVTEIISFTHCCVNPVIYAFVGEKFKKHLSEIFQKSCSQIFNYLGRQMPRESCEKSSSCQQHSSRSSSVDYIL
T2 sequence (P51685 whole entry): as above

B1: VHH-1: llama anti-hCCR8 VHH, SEQ ID NO: 27; in Tables 11 and 13 tested as human IgG1 Fc fusion (protein)
VHH: QVQLQESGGGLVQAGGSLRLSCVASGSTSSIRRIGWYRQAPGKQRELVARFSSGGGTNYADFVKGRFTISGDNAKNTMYLQMNSLKPEDTAVYYCSARRLLGTSRVDYWGQGTQVTVSSHHHHHH
modifications: left off: small tags and cut ends
As a reminder, the EC50 is the midpoint of the concentration-response curve. Low values mean an effect from little substance, high ones a need for much substance. For the molecule B1, the “binding specificity hCCR8 vs human CCR7” value with hCCR8 [1] was “specific binding to hCCR8 overexpressed in HEK293 cells and not to human CCR7”. Further, the EC50 with hCCR8 [2] (VHH-1 CDR alanine mutants as human Fc fusions, HEK293 hCCR8) was determined as 1.73 nM; in assay [3] (clones tested as VHH-Fc fusions (human IgG1 Fc), HuT-78 cells), 2.56 nM. Further, the “% Bmax” value in the assay with hCCR8 [2] (normalized to wild type VHH-1-Fc) is listed as 100%. Besides, in assay [3] (normalized to VHH-1 or VHH-2 depending on clone family), the “Normalized Bmax (%)” value is given as 100.0%.
